Laboratory results taken from patent US8729232.

Test system: T1, biotinylated 13-mer peptide LCTPSKGSLFTGR (native Mtb motif with arginine to lysine substitution at position 6)
T1 sequence: LCTPSKGSLFTGR

Substance: Mycobacterium tuberculosis formylglycine generating enzyme (Mtb FGE, Rv0712), recombinant
- FGly conversion detected by MALDI-TOF: A peak indicating the FGly-modified species appeared
